These results are taken from paper PMC2244710, “The Gammaherpesvirus m2 Protein Manipulates the Fyn/Vav Pathway through a Multidocking Mechanism of Assembly” (PLoS ONE, 2008).

The assay has as its target T1, GST fusion of the SH2 domain of mouse Fyn (residues 145-247) (mouse, UniProt P39688 145-247).
T1 construct: SH2 domain of mouse Fyn, residues 145-247; Cloned into pGEX-6P-1; also called GST-SH2 (Fyn); SH2 domain of Fyn; source: Escherichia coli, IPTG induction, purified with glutathione-sepharose beads
In words: pull-down; 10 µg of biotinylated pY120 peptide incubated with increasing amounts of purified GST proteins overnight at 4°C; recovered with streptavidin-conjugated beads; anti-GST immunoblot. Particulars: both partners purified.

Square brackets hold non-standard residues; d marks the D form. Ends that are not written are not given here. * marks the point of attachment. Biotin = O=C1N[C@H]2[C@H](CS[C@H]2CCCCC(=O)*)N1; pY = N[C@@H](Cc1ccc(OP(=O)(O)O)cc1)C(=O)O

T1 sequence (P39688 145-247): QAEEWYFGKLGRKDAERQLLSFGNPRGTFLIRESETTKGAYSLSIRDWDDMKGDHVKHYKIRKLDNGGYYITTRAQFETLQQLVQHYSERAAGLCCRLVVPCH

B1: N-terminal biotinylated, tyrosine phosphorylated M2 peptide incorporating Y120 (SPEENIpYETANSE) (peptide)
peptide: Biotin-SPEENI[pY]ETANSE
notes: region of M2 of MHV-68 incorporating Y120; numbers count on: the final spliced form of the protein; also called pY120 peptide; phosphorylated Y120 peptide; source: synthetic peptide, bought: Sigma
Take B1: the binding result is given as “binds”.
